Three molecules from article doi:10.1101/2020.02.13.948224 (bioRxiv, 2020) can be followed below.

The data set “native gel or EMSA” concerns the molecule itself. The data set is described as follows: native gel or EMSA. On the technique in general: Mobility shift assays separate free from complexed probe on a gel.
The next data set has as its target mouse RBPj (aa 53-474) (mouse, UniProt P31266 53-474). The data set is described as follows: native gel or EMSA.

Numbering of substitutions follows the chain as printed.

Chain of mouse RBPj (aa 53-474) (P31266 53-474): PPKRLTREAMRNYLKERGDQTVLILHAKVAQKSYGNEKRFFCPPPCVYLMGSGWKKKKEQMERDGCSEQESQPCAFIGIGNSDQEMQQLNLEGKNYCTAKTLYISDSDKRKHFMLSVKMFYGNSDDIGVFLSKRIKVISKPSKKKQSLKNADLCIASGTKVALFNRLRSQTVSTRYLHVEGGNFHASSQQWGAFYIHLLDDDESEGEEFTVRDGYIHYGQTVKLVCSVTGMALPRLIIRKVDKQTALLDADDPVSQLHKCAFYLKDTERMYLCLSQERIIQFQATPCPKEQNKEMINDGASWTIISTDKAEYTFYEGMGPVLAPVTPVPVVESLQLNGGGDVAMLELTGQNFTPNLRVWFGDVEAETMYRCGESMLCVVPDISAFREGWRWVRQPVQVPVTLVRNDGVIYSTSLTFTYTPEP

B1: mouse N1ICD (aa 1744-2113) (domain or fragment, UniProt Q01705 1744-2113, looked up)
chain: VLLSRKRRRQHGQLWFPEGFKVSEASKKKRREPLGEDSVGLKPLKNASDGALMDDNQNEWGDEDLETKKFRFEEPVVLPDLSDQTDHRQWTQQHLDAADLRMSAMAPTPPQGEVDADCMDVNVRGPDGFTPLMIASCSGGGLETGNSEEEEDAPAVISDFIYQGASLHNQTDRTGETALHLAARYSRSDAAKRLLEASADANIQDNMGRTPLHAAVSADAQGVFQILLRNRATDLDARMHDGTTPLILAARLAVEGMLEDLINSHADVNAVDDLGKSALHWAAAVNNVDAAVVLLKNGANKDMQNNKEETPLFLAAREGSYETAKVLLDHFANRDITDHMDRLPRDIAQERMHHDIVRLLDEYNLVRSPQ
Regarding B1, the binding result in the data set “native gel or EMSA” and with mouse RBPj (aa 53-474) was “binds” throughout.

B2: mouse N1^RAICD (aa 1744-2113) (domain or fragment, UniProt Q01705 1744-2113, looked up)
chain: B1 chain with R231A
On to B2, for which the binding result with mouse RBPj (aa 53-474) is “binds”.

B3: human SMT3-MAML1 (aa 1-280) (domain or fragment, UniProt Q92585 1-280, looked up)
chain: MVLPTCPMAEFALPRHSAVMERLRRRIELCRRHHSTCEARYEAVSPERLELERQHTFALHQRCIQAKAKRAGKHRQPPAATAPAPAAPAPRLDAADGPEHGRPATHLHDTVKRNLDSATSPQNGDQQNGYGDLFPGHKKTRREAPLGVAISSNGLPPASPLGQSDKPSGADALQSSGKHSLGLDSLNKKRLADSSLHLNGGSNPSESFPLSLNKELKQEPVEDLPCMITGTVGSISQSNLMPDLNLNEQEWKELIEELNRSVPDEDMKDLFNEDFEEKKD
With B3, the binding result with mouse RBPj (aa 53-474) is given as “binds”.
